Assay: soluble on expression in E. coli; label from the status in PepcDB or PDB records

Row | Sequence | soluble on expression in E. coli
1 | MGNKIAVIPGTFDPITNGHLDIIERAAKIFDVLYVSVLNNSSKKPLFTVEERMEMIKQVTAHLPNVHVESASGLTVDYAAKRGATAIVRGLRAVSDFEYEMQIASMNRTLNADIETFFVMTNTKYSFLSSSMVKEVAQYQGDIRELVPEVVNKAVKAKFNK | not soluble
2 | GSSGSSGGEIIEGCRLPVLRRNQDNEDEWPLAEILSVKDISGRKLFYVHYIDFNRRLDEWVTHERLDLKKIQFPKKEAKTPSGPSSG | soluble
3 | MGHHHHHHSHMAATAAVSPSDYLQPAASTTQDSQPSPLALLAATCSKIGPPAVEAAVTPPAPPQPTPRKLVPIKPAPLPLSPGKNSFGILSSKGNILQIQGSQLSASYPGGQLVFAIQNPTMINKGTRSNANIQYQAVPQIQASNSQTIQVQPNLTNQIQIIPGTNQAIITPSPSSHKPVPIKPAPIQKSSTTTTPVQSGANVVKLTGGGGNVTLTLPVNNLVNASDTGAPTQLLTASCQTGMLNSTRMFLFLAFINVL | not soluble
4 | MSSNSPNSSNPAATDAPKKTSVEPGSEANNWHITEADEKGFKLTDMIKKLLKPVFSKAIMFDEKEIHVLLTRVFKYYTSPPNKKTAPSASASATTSMSPPKPAANALLELQAPINICGDTHGQYNDLLRIFNACGAATKTQYLFLGDYVDRGGHSLEVIMLLFSLKLAMPRKMHLLRGNHELKAINKNYGFHAELKKRFQREEVYESVYNHFNQVFSYMPLCAIVSKRILCMHGGISPHLKSLDDIRAIPLPLETAKTHPLACDLLWADPEKDAKGFEPNKIRAISNVFGKKEVDDLCKRLDIDLIVRAHQVVEYGYAFFADRRLITVFSASRYQIELCNYAAVVVVNKMLELSFVQLKPEDFEVRRDECEENAKDQTTSNVPH | not soluble
5 | MMIKIAVVGSKEFMENLFPIAQKLEGIEIDPYIYLHPAESSELLKCLKPCDVIFFSGALPYYMAKEIREQLRIPSTYLQQDETTVASSILSIMYHQSIQPHNISIDLVDRSFITNVFHDIGIKESPQVLDYENMLWSKDEINRVIDFHVAKYQYGEAHLALTSIHAVYDELQKIGIPSERMIDPTQSIIHGLKDAKIKAELAKSYSATVGACIISSLELRASLLEKLDVISKELRGSFKQVDEMTCILYTTRGDIESIIKTNAIDNLFASIEGTIAIGFGYGKTVKEAEQNAKIAQSFAKNYPIDRCFYILASDKDLFGPFPKEQRVQSLKNDNPELMKIAKETKLSPANLSKIIQFSQSHPSLKFTAADLSEYLQVTRRSTERLLKKLVDYGYAHICGEEMPYQQGRPRALYELNFPLFLSF | not soluble
6 | MASQPNSSAKKKEEKGKNIQVVVRCRPFNLAERKASAHSIVECDPVRKEVSVRTGGLADKSSRKTYTFDMVFGASTKQIDVYRSVVCPILDEVIMGYNCTIFAYGQTGTGKTFTMEGERSPNEEYTWEEDPLAGIIPRTLHQIFEKLTDNGTEFSVKVSLLEIYNEELFDLLNPSSDVSERLQMFDDPRNKRGVIIKGLEEITVHNKDEVYQILEKGAAKRTTAATLMNAYSSRSHSVFSVTIHMKETTIDGEELVKIGKLNLVDLAGSENIGRSGAVDKRAREAGNINQSLLTLGRVITALVERTPHVPYRESKLTRILQDSLGGRTRTSIIATISPASLNLEETLSTLEYAHRAKNILNKPEVNQKL | soluble
7 | MPSISPASDADRALVIGSGLGGLAAAMRLGAKGWRVTVIDKLDVPGGRGSSITQEGHRFDLGPTIVTVPQSLRDLWKTCGRDFDADVELKPIDPFYEVRWPDGSHFTVRQSTEAMKAEVARLSPGDVAGYEKFLKDSEKRYWFGYEDLGRRSMHKLWDLIKVLPTFGMMRADRSVYQHAALRVKDERLRMALSFHPLFIGGDPFNVTSMYILVSQLEKEFGVHYAIGGVAAIAAAMAKVIEGQGGSFRMNTEVDEILVEKGTATGVRLASGEVLRAGLVVSNADAGHTYMRLLRNHPRRRWTDAHVKSRRWSMGLFVWYFGTKGTKGMWPDVGHHTIVNAPRYKGLVEDIFLKGKLAKDMSLYIHRPSITDPTVAPEGDDTFYALSPVPHLKQAQPVDWQAVAEPYRESVLEVLEQSMPGIGERIGPSLVFTPETFRDRYLSPWGAGFSIEPRILQSAWFRPHNISEEVANLFLVGAGTHPGAGVPGVIGSAEVMAKLAPDAPRARREAEPAERLAAELEHHHHHH | not soluble
8 | KNTDLVAEDSICFPIDEHTYYASKSIFQFEENGHEYLSFLDAEYSQKINIYDIKNQKLIKTILLQKEGPNGMNVLSGCHPLNLNHFIITSWNGTFSLVNDKGEIEKKFDFWEKGVNFQEFDHISFSSYSYKPAIIKDSILYFSQSFLKHPRKKSDWNKIPMFAFANLNTGKTGWSELRYPLIFNKDEDFKNVKLYDPEICYTYTGKDVVISLGQYDSIMVSSDFKHKISYNAKSRYLAHAYPHLQDGQIDLFKNIQIQGKLPHYSHLMYDKYRKVFYRFALMPDDNIKPFSNNPHQSFSIIILNKDYEIIGETKFPGNTYTHHLCFVGKKGLYISENNENNPQFDENKLVFRCFTLQDRKK | soluble
9 | MSQVQSGILPEHCRAAIWIEANVKGEVDALRAASKTFADKLATFEAKFPDAHLGAVVAFGNNTWRALSGGVGAEELKDFPGYGKGLAPTTQFDVLIHILSLRHDVNFSVAQAAMEAFGDCIEVKEEIHGFRWVEERDLSGFVDGTENPAGEETRREVAVIKDGVDAGGSYVFVQRWEHNLKQLNRMSVHDQEMVIGRTKEANEEIDGDERPETSHLTRVDLKEDGKGLKIVRQSLPYGTASGTHGLYFCAYCARLHNIEQQLLSMFGDTDGKRDAMLRFTKPVTGGYYFAPSLDKLMAL | soluble
10 | MEKKTIVLGVIGSDCHAVGNKILDHAFTNAGFNVVNIGVLSPQEVFIKAAIETKADAILLSSLYGQGEIDCKGLRQKCDEAGLEGILLYVGGNIVVGKQHWPDVEKRFKDMGYDRVYAPGTPPEVGIADLKKDLNIE | soluble
11 | MGSDKIHHHHHHMPECSKAWAVREEPELLTDRRHTDDGGEFVSQPRIIEPAIRTLIDTPLRVGESPTWDERTGDLWFVDILAPAIFCLSPSGKLQRFDMPAQIGCLGLCQSNLIVAALKTGVHLLNPQNGELELLCDPDEGRADSRLNDGKVGPDGHFWVGTRDEADVPTGNARLYRVSSSGHVERFIDGDMLTSNGLAWSPDETRMYHSDSSGLLLQVFDFDVQTGRLGPAKRLHDFQPDEGRPDGAATDSEGCYWSAGVQAGRLNRFTPDGELFEIYKMPFKGPTMPCFGGPELKTLYVTSLVTDTNGVATSGTLVAFDAPVAGAPIHKFPL | not soluble
12 | MILLIGATGNIGLPIVKSLQKKGAEVRLLVHNEKSSAKIQALGQMEIFIGDFRNDSDLRESMKGCSSVFHVVPPFTKDEAEIGYRVIENARHAGVEHIVFNSVLHPQLRKMEHHAQKLLVEEAVIESGLAFNIIQPAMLMQNLLMVWRTIRENGIYPVISSPDKKMSLIDSEDIGEAVANILTDPSLRNATFELAGSDLLTYKEMALIISEELNQPVKVVPVDDKGREELARKQGMSSYAIHAFLKMAKHYDEHGFSGSNPLVLTSILKRPPNSYRDFIRRLIAEDGGI | not soluble
13 | MSHALRAVFLDHASLDLGDLDMRPLRAAFDELQLHAASQPQEVAARLHDARVAISNKVPIDAQCIAACPELELILISATGTNNIDLAAARERGIVVANCHGYGTPSVAQHTLALLLALATRLPDYQQAVRSGRWQQSSQFCLLDFPIVELEGKTLGLLGHGELGGAVARLAEAFGMRVLLGQLPGRPARADRLPLGELLPRVDALTLHCPLTEDTRGMLGSAELALMKPGAFLVNTARGGLVDEQALADALRGGHLGGAATDVLSVEPPRNGNPLLAPDIPRLIVTPHNAWGSREARQRIVGQLAENAEAWKAGR | not soluble
14 | MKGMSKMPQFNLRWPGGGPQFNLRWPREVLDLVRKVAEENGRSVNSEIYQRVMESFKKEGRIGGTGGSGGGREVLDLVRKVAEENGRSVNSEIYQRVMESFKKEGRIGAHHHHHHKNQHE | soluble
15 | TRMAPVIMVPGSSASQNRFDSLITELGKETPKKHSVLKLTVQTDGTIKYSGSIAANDNEPFIVIGFANNRDGKANIDKQAVWLNTAFKALVKTYHFNHFYALGHSNGGLIWTLFLERYLKESPKVHIDRLMTIASPYNMESTSTTAKTSMFKELYRYRTGLPESLTVYSIAGTENYTSDGTVPYNSVNYGKYIFQDQVKHFTEITVTGANTAHSDLPQNKQIVSLIRQYLLAETMPDK | not soluble
16 | MSLVLKCSLCINDERITKILTVNGRPICKECKAFLEHPPDKIKIRKELEELLSQVDKAIVAYSGGKDSTVALYLAKEEYDIDVEAVMVDHGFMAPQAIENAKKVSEYLNVPLTIIREDYSEIFKDALLKAKSPCRKCSRRTMEALRKYALEKGYKYIISGHELPFGHHPYRLMSGGIIQIRLLSLMSEKERMEILKKLPFKLPELPGYTSNCLILGPALERYWEKHGYSFEHRRIAALVRYGLLDREKALKKVEKPKVPEWQWELVEKKLNLIVRSLEGHHHHHH | soluble
17 | MDPLEALQKHVQRPEEFPLREVTVSGISYVAFGDYAYKKDTETSLQIYGKSDEFYSLESLVVFLKYSHENHGVYVKEAAAAGVRAVTRIDRKNVTEYLQGDRTDFPALMNQVNPLSLRQLLHSSEPEAKKPRLDGEAAGEPMDTSTSAEICSKIPIFLKINSIFFPDEPQESAVSAAKKEVEIRALNDNLTKDRIAEMRRKRQSHREKGIVTIETTFPQKPDFLIKKFQFFSESLSTLTSASLPKTRIHKTRENVMLGARDLSNVLDIITSAQRQWDLNEKKEKVAAVHATNLSKDQSGAAGGQQQRSGYSRYAQEAFAHEKTKEIQTEGSFIGSNFSSIKQGHHAVQKAPDAPPGRPPLAKPIQLLTSSTATSSGSSAAQNGSKRTSRSPIIIVPSAMNTMINLYNVRDILQNFSYVPVDQRRKETNKKPVDLAIQRQKNGVTYNIRVIDNAEKLANDDWDRVIAVFVMGVAWQFKGWKWNGNPTDIFTHIPAFHFHVDQDKPVAQVMQWNVHKIPVSATKRHMDKARFSQVWETIENFVRKNKPHLTARLGL | not soluble
18 | MGHHHHHHSHMNCCGIWPFGKPGVPYKRLADVETDERMEMEIRLGMPPGVLAADLIRSTKDKQVLEQLYLLAVQANNLTEHIKRFTLGEIPEECKNVTRSQLEKLKSVQHIIWNTMISLAAGAISVDEATLPALLDKRAEETVALLEMEKIATAVKLDETAAWATDIAGIVSSQPLATPPSESPDQIALKKATQLSNAVY | soluble
19 | MGSDKIHHHHHHLEQQAIVANNLANASTTGFRAQLATFRAVPMSFGDGSSINDNTTRTFVLSSTPGADYTPGPIQQTGNPLDVAIQGPGWLAVQTADGGEAYTRAGNLHIDENGQLVNATNQVVLGNGGPVSVPPGAEITIGKDGTVSALTPGDPPTAVVTVDQLKLVNPDPQTMTRGDDGLFRTGDGNPADADPTVTLAPASLEGSNVNPVSAMVSMITNARQFQMQTKLLESADKNDQSANQLLSFS | not soluble
20 | MNFRPIAGIDVGKFFSEMAILSPSNEVIARMKIRHDSSTDVERAVELLKKTEKDFDSRPFVVMESTGHYHKILFHSLYKAGFEVSVINPIQTDSIKNIGIRKVKNDKVDARKIALLYRFQELKIQYPERYGCWTLARNKACEVWYNRKGLAAALR | not soluble
21 | GMADKTGTPHPLTEPGVWIERIGGRVFPPHLPALFLDRDGTINVDTDYPSDPAEIVLRPQMLPAIATANRAGIPVVVVTNQSGIARGYFGWSAFAAVNGRVLELLREEGVFVDMVLACAYHEAGVGPLAIPDHPMRKPNPGMLVEAGKRLALDLQRSLIVGDKLADMQAGKRAGLAQGWLVDGEAAVQPGFAIRPLRDSSELGDLLAAIETLGRDNRS | soluble
22 | MPKVISQKEFNILSRTKERVNFQIVYTKQRNGLHKAAKEYFFKDKDFTIIEDTPDTPDQPDGPCITKGPKEPGGPEEPNGPDKPEDPKDPDTPDVSEGPKEQGGQKDPGGPDDPSEGKQKVSKPDKYVTHRELDEKLKDFATKADFKRVEDKVDVLFELQKTQGEQIKVQGEQIKAQGKQIEQLTETVKVQGEQIRAQGEQIKAQSEEIKEIKVEQKAQGEQIKELQVEQKAQGKTLQLILKTLEKMNERLEKLESK | soluble
